Results on 106 substances are retold here after the supplement of paper PMC12042874.

± gives the uncertainty stated by the source.

The series in a line: amyloid nucleation score (Sup35N fusion, yeast selection) (log enrichment); library NNK2; higher = more nucleation; inactive = no reads after selection. The procedure, abridged: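 The nucleation score equals the log enrichment of output over input reads from DiMSum, centred on the mode score of non-aggregating sequences. It was computed only for sequences with 100 or more input reads. The reads came from Illumina sequencing of plasmid inserts from psi-negative yeast expressing Sup35N fused to peptides of 20 random codons, induced with 100 μM copper sulfate for 24 hours and grown 7 days at 30°C without adenine and uracil.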

On to VRKSHS, for which the amyloid nucleation score amounted to 0.308 ± 0.42.
Next, YWSRRAYCFCSAFFYNTGFF: 1.53 ± 0.19.
In turn, EMLFWVVGTMDVDWMPG yielded an amyloid nucleation score of 0.508 ± 0.57.
Take SCSTYNDSSVYWFN: the amyloid nucleation score worked out at 2.04 ± 0.077.
GRTSDFKLWIGVCLLGSSYV came in with an amyloid nucleation score of 1.89 ± 0.2.
To TLYFYFRLSW belongs 0.276 ± 0.8.
Next, TGNTFIPSLFICRIEGSTSA: 0.506 ± 0.44; WGADSYYMCTKLLGSDCGSN: 0.453 ± 0.66; CALSVVTIHFCHTRAPGTPL: 3.65 ± 0.082.
Next, LVQFHRLPRTRWGEFVRGDH: 3.84 ± 0.092; FGVTHVSWIQERVTADGAER: 0.998 ± 0.39.
Substance SVGGETITRWKCIWMTRRTE had an amyloid nucleation score of 1.77 ± 0.16.
In turn, YGDCLRLTDSYVSIFTRVPT displayed an amyloid nucleation score of 0.159 ± 0.3.
To SVLIAQLDAAYGISVVRSPG belongs 0.264 ± 0.18.
Next, IIVNMKLVDTS: 0.138 ± 1.1; KYSTISRCAYSRIDVCGKKK: 0.488 ± 0.33.
For the substance ILSAFV, the amyloid nucleation score is -0.16 ± 0.36.
To YSLYINLSNAGIGVYPLKPA belongs 7.252 ± 0.062; to SVRFPITVMFRFSRWFTETY, -0.264 ± 0.37.
To LGDERDADQIPSGIYG belongs 1.26 ± 0.27; to NGVRLNLVNFSFGLDVMPFR, 7.642 ± 0.071.
In the case of TSRML, the amyloid nucleation score was found to be 0.67 ± 0.39.
To MCGFFVIIMRC belongs -0.652 ± 0.74; to GLKMLFNVNLQDM, -0.368 ± 1; to MWRVWECGGRRDNLVRCPSR, 0.774 ± 0.51.
To CLISRLIVL belongs -0.038 ± 0.79; to DPGSRDMIG, 0.043 ± 1.
Next, ELSRAGYEWCLGSHTSLVSS: 0.836 ± 0.32; ICFIVSSFRY: 2.58 ± 0.23; RPPSIYC: -0.477 ± 0.49.
Consider VGYIMYIYDGYRVVFVGYYR, for which the amyloid nucleation score amounted to 0.217 ± 0.65.
To IVRVSEPIEVHVHVNAVYSV belongs 4.68 ± 0.083; to SAFSVSYTKSAFSARTVDIK, -0.948 ± 0.33.
Next, RVSSYSQATKKLKHERFGDV: -0.533 ± 0.44; PWHTSFALERKDMGHK: -0.094 ± 0.36.
Next, SELRTAKPVN: 0.635 ± 0.26; VKIWDHKCSLRGYWVKWMIG: 1.45 ± 0.3; SGFII: -1.18 ± 1.1.
For MDMPVWG, the amyloid nucleation score was determined as 0.285 ± 1.
Next, GNIAVYNDAILLVWDNESRT: -0.714 ± 1; VLPLFNGIARHPCWNLCMPM: -1.27 ± 0.62.
To LSFDEVTLVRAKFHGSVIRL belongs 4.86 ± 0.06; to RRRPRGLEGFAERGLGDWTY, 1.36 ± 0.44; to MFVYADFSHILEKRGHTGNR, 2.64 ± 0.15.
To YISSKYYWSTVKCFAFNTFH belongs -0.594 ± 0.42; to ITSICGIIE, “inactive”; to LYWSFYNYWATHVGFWHKKA, -1.87 ± 0.64.
The substance GLCSIYNWYLVFQVIRTLSW gave an amyloid nucleation score of 2.41 ± 0.14.
Substance TSIMPDSFFRSLKVSF displayed an amyloid nucleation score of -0.249 ± 0.56.
Next, AWVYSMRQVYQLNCLDQIMY: “inactive”; CKSSARLIDYTS: -0.682 ± 0.45; SCHLLL: -0.891 ± 1.1.
The substance SDAIKWIYL showed an amyloid nucleation score of 0.335 ± 0.29.
Next, GINFVF: -0.287 ± 0.79; MNFWMILVKSETYFNDRRPY: 7.152 ± 0.061; LQKWYGDD: 1.58 ± 0.34.
As for TKRHE, the amyloid nucleation score turned out to be 0.987 ± 0.58.
Consider NIVKGFRCLCVNLTDFRETR, for which the amyloid nucleation score came out at 4.09 ± 0.12.
To ELNLNS belongs 0.695 ± 0.36; to QMETSFL, -1.58 ± 1.1.
In turn, VVQFSNGDLLILTGCPNTSK came in with an amyloid nucleation score of 0.449 ± 0.8.
DSVIRRNKNTSTL registered an amyloid nucleation score of -0.275 ± 0.25.
Next, FHMRFMMVFIRLKTRTKLIL: -0.797 ± 0.42; SGMGSSYLFQFGSMYAFDDC: 0.636 ± 0.34; TQLSV: -0.046 ± 1.
Next, SVVFLRLGYGKLRV: -0.159 ± 1; INHDFQTHVL: 0.154 ± 0.65.
Next, DRRPNCIFLDGSYRRDV: 0.034 ± 1.1.
As for WFMFCNLGLGTPIGMITLRS, the amyloid nucleation score was -1.16 ± 0.56.
Next, CQGVSYHYLTACRNKLCHES: 0.107 ± 0.79; LGDCVSNHSCLSVEHFDLNY: 4.92 ± 0.11.
Next, VKQYYGSESNNGITFILRIA: 0.177 ± 0.38; NAERSESLYNYKMAGPYGEG: -0.661 ± 1.1.
To LVYNI belongs -0.081 ± 1.1.
IPNVPCIRGVSYSDFFTSSY: the amyloid nucleation score was -0.044 ± 0.61.
Take QEAALG: the amyloid nucleation score worked out at 1.27 ± 0.35.
HKFIPAVVSCMQGNMKNYWS yielded an amyloid nucleation score of -0.166 ± 0.5.
Next, KVSHAWM: 0.704 ± 0.53; HVFADERMDVGGSITVTARG: 0.164 ± 1.1.
To YPPIISRLQY belongs “inactive”.
TNWGNAVSSAMRLGSL displayed an amyloid nucleation score of 0.438 ± 0.28.
To TTLRCHLIESKWGYVRRLTW belongs 4.33 ± 0.088.
Next, LLVKF: 0.641 ± 0.74; FLYTCF: 0.509 ± 0.25; YIGPNKFLKQFDCLINFFLT: 3.08 ± 0.097.
Next, RPCQGLDTSVRCVLMMRYYR: 4.36 ± 0.046; NNLGKEWKNIWGECLRRVAP: 4.48 ± 0.079.
NVRDYRIFDL had an amyloid nucleation score of -0.877 ± 0.78.
To WVPRRSSLCGAILYLGTKSM belongs -0.965 ± 0.78; to SVCVRT, “inactive”; to VLGVLR, “inactive”.
To GRPVMMEMPII belongs 0.512 ± 0.42; to LDRGVVSLRLLFARAHNYSK, 2.88 ± 0.15; to GKLRLLWKGITCVRAFANKL, -0.976 ± 0.34.
To IFIVYILCFFMREIFAPI belongs 3.77 ± 0.11.
Turning to AYSFDKHKNKGLSTASVGHM, the amyloid nucleation score was found to be 0.894 ± 0.55.
On to SGPVERFLILLIRCMNRLYV, for which the amyloid nucleation score is -1.19 ± 0.44.
Substance FGINSLYINKWSDRLRQCTR had an amyloid nucleation score of -0.142 ± 0.79.
To EYVADHGQIADGR belongs 0.782 ± 0.26; to SSRDKILTSMKIWMLRFLAN, 0.37 ± 0.51; to SNYGTGDGCCVGV, 1.81 ± 0.099.
To MTIVVSDCTSVSDVFIGLGN belongs 2.29 ± 0.076.
To DPKHATYAKQRSGMYRYGHW belongs 0.691 ± 0.43; to ESLMKSYVLSAYMCGPIGGR, 1.03 ± 0.37; to HLDGWRNFDYDIS, -2.3 ± 0.78.
On to HLCSCTMWGPHNRGFYYHWC, for which the amyloid nucleation score result was “inactive”.
